Experimental data published in PMC12421323.

Legend:
nucleolin (C23) [1] = molecular target: T1, nucleolin (C23) (UniProt P19338 2-710); experiment: EMSA
nucleolin (C23) [2] = molecular target: T1, nucleolin (C23); experiment: competition
nucleolin (C23) [3] = molecular target: T1, nucleolin (C23); experiment: EMSA; remark: listed apart in the source

T1 sequence (P19338 2-710): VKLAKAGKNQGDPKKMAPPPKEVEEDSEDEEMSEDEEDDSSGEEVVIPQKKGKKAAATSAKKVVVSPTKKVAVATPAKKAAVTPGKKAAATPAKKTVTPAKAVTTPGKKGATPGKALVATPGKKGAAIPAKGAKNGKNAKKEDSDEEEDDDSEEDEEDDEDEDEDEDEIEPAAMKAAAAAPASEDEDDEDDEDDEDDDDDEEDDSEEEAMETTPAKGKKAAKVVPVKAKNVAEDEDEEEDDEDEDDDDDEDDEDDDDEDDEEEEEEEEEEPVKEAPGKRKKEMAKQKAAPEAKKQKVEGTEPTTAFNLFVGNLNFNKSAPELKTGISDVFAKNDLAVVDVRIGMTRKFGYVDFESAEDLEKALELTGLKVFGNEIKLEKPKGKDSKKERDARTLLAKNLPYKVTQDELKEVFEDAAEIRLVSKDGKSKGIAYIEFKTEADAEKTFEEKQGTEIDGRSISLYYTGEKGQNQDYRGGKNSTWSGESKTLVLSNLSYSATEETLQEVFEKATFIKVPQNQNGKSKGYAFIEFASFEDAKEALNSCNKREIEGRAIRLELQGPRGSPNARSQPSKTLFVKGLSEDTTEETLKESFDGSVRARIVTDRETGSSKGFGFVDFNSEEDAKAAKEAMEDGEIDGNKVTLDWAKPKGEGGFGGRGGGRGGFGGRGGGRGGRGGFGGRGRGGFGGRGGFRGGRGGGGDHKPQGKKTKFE

TTGGGCGGGCCGGGGGCGGG (structured_DNA) [VEGF G4]: binds (nucleolin (C23) [1]).

TTGGGCGGGCCGGGGGCGGG (structured_DNA) [VEGF G4 (unlabelled)]: binds (nucleolin (C23) [2]).

UGCUUACGUAGCGUGCCUUA (ssRNA) [ssRNA 2]: binds (nucleolin (C23) [3]).
